{"source": "patent US8791066B2", "about": "(Novo Nordisk A/S, priority 2004, dated 2014)", "origin": "cited, not measured here", "data": [{"substance": "GLP-1(7-36)amide", "values": [{"measurement": "time until peak concentrations return to baseline / cleared from the circulation", "setting": "administered subcutaneously", "result": "≤ 90", "unit": "min"}, {"measurement": "time to complete clearance", "setting": "in vivo", "result": "12 to 13", "unit": "min"}]}]}
